The results in this text go back to patent publication US20120207760A1.

Common to all, as to conditions: remark: other sources report otherwise
In assay [1] the target is T1, recombinant homotrimeric HA, A/Japan/305/57 H2N2 (Influenza A virus A/Japan/305/57 (H2N2)). The assay is described as follows: trimeric HA microarray, transfection set 4.
Assay [2] addresses T2, recombinant homotrimeric HA, A/Wisconsin/67/05 H3N2 (Influenza A virus A/Wisconsin/67/05 (H3N2)). The assay is described as follows: trimeric HA microarray, transfection set 4.
For assay [3], the target named is recombinant homotrimeric HA, A/Vietnam/1203/04 H5N1 (Influenza A virus A/Vietnam/1203/04 (H5N1)). The experiment in a line: trimeric HA microarray, transfection set 4.
In assay [4] the target is T3, recombinant homotrimeric HA, A/California/4/09 H1N1 (Influenza A virus A/California/4/09 (H1N1)). The assay is described as follows: trimeric HA microarray, transfection set 4.
For assay [5], the target named is T4, recombinant homotrimeric HA, A/swine/Ontario/01911-2/99 H4N6 (Influenza A virus A/swine/Ontario/01911-2/99 (H4N6)). The experiment in a line: trimeric HA microarray, transfection set 4.
Assay [6] deals with T5, recombinant homotrimeric HA, A/South Carolina/1/18 H1N1 (Influenza A virus A/South Carolina/1/18 (H1N1)). The experiment in a line: trimeric HA microarray, transfection set 4.
Assay [7] deals with recombinant soluble homotrimeric HA of A/Hong Kong/1073/99 - H9N2 (Influenza A virus A/Hong Kong/1073/99 (H9N2)). The assay is described as follows: micro-array; captured IgG, V5-tagged trimeric HA.
For assay [8], the target named is T6, recombinant homotrimeric HA, A/Indonesia/5/05 H5N1 (Influenza A virus A/Indonesia/5/05 (H5N1)). The assay is described as follows: trimeric HA microarray, transfection set 4.
In assay [9] the target is recombinant homotrimeric HA, A/chicken/Vietnam/NCVD-016/08 H5N1 (Influenza A virus A/chicken/Vietnam/NCVD-016/08 (H5N1)). The experiment in a line: trimeric HA microarray, transfection set 4.
Assay [10] concerns the target T7, recombinant homotrimeric HA, A/Solomon Islands/3/06 H1N1 (Influenza A virus A/Solomon Islands/3/06 (H1N1)). The assay is described as follows: trimeric HA microarray, transfection set 4.
Assay [11] has as its target recombinant homotrimeric HA, A/Hong Kong/2108/03 H9N2 (Influenza A virus A/Hong Kong/2108/03 (H9N2)). The experiment in a line: trimeric HA microarray, transfection set 4.
Assay [12] concerns the target recombinant homotrimeric HA, A/common magpie/Hong Kong/5052/07 H5N1 (Influenza A virus A/common magpie/Hong Kong/5052/07 (H5N1)). The experiment in a line: trimeric HA microarray, transfection set 4.
Assay [13] addresses recombinant homotrimeric HA, A/duck/Yangzhou/02/05 H8N4 (Influenza A virus A/duck/Yangzhou/02/2005 (H8N4)). The experiment in a line: trimeric HA microarray, transfection set 4.
Assay [14] concerns the target recombinant homotrimeric HA, A/northern shoveler/California/HKWF115/07 (Influenza A virus A/northern shoveler/California/HKWF115/2007 (H6N1)). The experiment in a line: trimeric HA microarray, transfection set 4.
Assay [15] addresses recombinant homotrimeric HA, A/Egypt/3300-NAMRU3/08 H5N1 (Influenza A virus A/Egypt/3300-NAMRU3/08 (H5N1)). The assay is described as follows: trimeric HA microarray, transfection set 4.
Assay [16] concerns the target recombinant homotrimeric HA, A/Hong Kong/1073/99 H9N2 (Influenza A virus A/Hong Kong/1073/99 (H9N2)). The experiment in a line: trimeric HA microarray, transfection set 4.
The target of assay [17] is T6, recombinant homotrimeric HA, …. The assay is described as follows: trimeric HA microarray, transfection set 5.
The target in assay [18] is T1, recombinant homotrimeric HA, …. The assay is described as follows: trimeric HA microarray, transfection set 5.
The target of assay [19] is T2, recombinant homotrimeric HA, …. The experiment in a line: trimeric HA microarray, transfection set 5.
Assay [20] has as its target T3, recombinant homotrimeric HA, …. The assay is described as follows: trimeric HA microarray, transfection set 5.
Assay [21] addresses T5, recombinant homotrimeric HA, A/South …. The assay is described as follows: trimeric HA microarray, transfection set 5.
In assay [22] the target is recombinant soluble homotrimeric HA of A/Hong Kong/156/97 - H5N1 (Influenza A virus A/Hong Kong/156/97 (H5N1)). The experiment in a line: micro-array; captured IgG, V5-tagged trimeric HA.
Assay [23] addresses recombinant soluble homotrimeric HA of A/northern shoveler/California/HKWF115/2007 - H6N1 (Influenza A virus A/northern shoveler/California/HKWF115/2007 (H6N1)). The assay is described as follows: micro-array; captured IgG, V5-tagged trimeric HA.
Assay [24] concerns the target recombinant soluble homotrimeric HA of A/Anhui/1/05 - H5N1 (Influenza A virus A/Anhui/1/2005 (H5N1)). The assay is described as follows: micro-array; captured IgG, V5-tagged trimeric HA.
Assay [25] concerns the target recombinant soluble homotrimeric HA of A/northern shoveler/California/HKWF115/07 (Influenza A virus A/northern shoveler/California/HKWF115/2007). The assay is described as follows: microarray, BCC supernatant IgG, trimeric HA.
Assay [26] concerns the target T7, recombinant homotrimeric HA, A/Solomon …. The assay is described as follows: trimeric HA microarray, transfection set 5.
The target of assay [27] is T4, recombinant homotrimeric HA, …. The experiment in a line: trimeric HA microarray, transfection set 5.
Assay [28] concerns the target recombinant soluble homotrimeric HA of A/Egypt/3300-NAMRU3/08 - H5N1 (Influenza A virus A/Egypt/3300-NAMRU3/2008 (H5N1)). The assay is described as follows: micro-array; captured IgG, V5-tagged trimeric HA.
The target of assay [29] is recombinant soluble homotrimeric HA of A/duck/Yangzhou/02/05 (H8N4) (Influenza A virus A/duck/Yangzhou/02/2005 (H8N4)). The assay is described as follows: microarray, BCC supernatant IgG, trimeric HA.
Assay [30] has as its target recombinant soluble homotrimeric HA of A/swine/Ontario/01911-2/99 (H4N6) (Influenza A virus A/swine/Ontario/01911-2/99 (H4N6)). The assay is described as follows: microarray, BCC supernatant IgG, trimeric HA.

B1: TCN-536 (5095_N01) (antibody, V domains shown)
VH: QVQLQQWGAGLLKPSETLSLTCAVYGGSFSVSGYYWSWIRQPPGRGLEWIGEISHGGSTNYNPSLKSRVTISVDTTKNQFSLRLSSVTAADTAVYYCARGTDPDTEVYCRVGNCAAFDYWGQGSLVTVSS
VL: EIILAQSPGTLSLSPGERATLSCRASQFVSTRSLAWYQQRPGQAPRLLIYGASSRATGIPDRFSGSGSGTDFTLTISRLEPEDFAVYYCQHYGYSPRYAFGQGSKVEIK
On to B1, for which the Trimeric HA Binding RLU in assay [1] was 260 RLU; in assay [2], 20600 RLU; in [3], 182 RLU; in [4] it was 49 RLU; in assay [5] it was 168 RLU; in [6], 39 RLU. Further, the Trimeric HA Binding: RLU in assay [7] was 115 RLU.

B2: TCN-535 (5246_P19) (antibody, V domains shown)
VH: QVQLVQSGSEVKKPGTSVKVSCTASGSVFTNYGISWVRQAPGQGLEWMGGIIPLFGAAKYAQKFQGRVTITADESTKTVYMELSRLTSKDTAIYFCAKAPRVYEYYFDQWGQGTPVTVSS
VL: EIVLTQSPGTLSLSPGERATLSCRASQSVSSSQLAWYQQKPGQAPRLIIYGASTRATGIPDRFSGSGSGTDFTLTIGRLEPEDFAVFFCQQYSTSPPTFGQGTKVDFK
Turning to B2, the Trimeric HA Binding RLU was determined as 18200 RLU in assay [8]; 20900 RLU in [9]; 21500 RLU in [1]; 4450 RLU in assay [2]; 836 RLU in assay [10]; 25200 RLU in assay [3]. Further, the Trimeric HA Binding RLU in assay [4] is 25200 RLU; in assay [11], 18 RLU; in assay [12], 477 RLU; in assay [6] it was 22400 RLU; in assay [13], 428 RLU; in [14] it was 18100 RLU. Further, the Trimeric HA Binding RLU in assay [15] was 25300 RLU; in assay [16] it was 21200 RLU.

B3: TCN-545 (5082_I15) (antibody, V domains shown)
VH: QVQLQQWGAGLLKPSETLSLSCAVFGGSFSDYYWTWIRQPPGKGLEWIGEIKHSGRTNYNPSLESRVTISVDTSKNQFSLKLSSVTAADTAIYYCARGTDPDTEGYCRSGSCSAFDFWGQGTLVTVSS
VL: EIVLTQSPGTLSLSPGERATLSCRASHFVNYRSLAWYQQTPGQVPRLLIYGASTRATGIPDRFSGSGSGTDFTLTISRLEPEDFAVYFCQQYGGSPRYTFGQGTRLEIK
With B3, the Trimeric HA Binding RLU in assay [17] was found to be 5270 RLU; in assay [18] it was 1360 RLU; in assay [19], 32000 RLU; in assay [20], 818 RLU; in [21], 900 RLU. The Trimeric HA Binding: RLU in assay [22] was 1560 RLU; in assay [23], 2320 RLU; in [24], 4880 RLU; in [25], 1170 RLU.

B4: TCN-539 (5056_A08) (antibody, V domains shown)
VH: QVQLVESGGGVVQPGRSLRLSCAASEITFITYAMHWVRQAPGKGLEWVALISDDGSNKFYADSVKGRFTISRDNSKNTLYLQMNSLRAEDTAAYYCAREGVYFDSGTYRGYFDYWGQETLVTVSS
VL: EIVLTQSPATLSLSPGERATLSCRASQSVSSYLAWYQQKPGQAPRLLIYDASNRATGIPARFSGSGSGTDFTLTISSLEPEDFAVYYCQQRSHWPPITFGQGTRLEIK
On to B4, for which the Trimeric HA Binding RLU in assay [18] is 2560 RLU; in assay [19], 58800 RLU; in [26], 871 RLU; in assay [27], 6510 RLU; in assay [21] it was 5330 RLU. For the same molecule, the Trimeric HA Binding: RLU was 24300 RLU in assay [28] and 1490 RLU in assay [29].

B5: TCN-555 (5246_L16) (antibody, V domains shown)
VH: QVQLVQSGAEVKRPGSSVKVSCTASGGIFRKNAISWVRQAPGQGLEWMGGIIAVFNTANYAQKFQNRVKITADESGNTAYMELSSLTSDDTAVYYCASHPKYFYGSGSYPDFWGQGTLVTVSS
VL: QSALTQPRSVSGSPGQSITISCTGGSSDIGASNSVSWYQQHPGKAPKLVIFDVTERPSGVPHRFSGSKSGNTASLTVSGLQPDDEADYFCCAYGGKYLVVFGGGTKVTVL
As for B5, the Trimeric HA Binding RLU was 33900 RLU in [17]; 16700 RLU in [18]; 14700 RLU in assay [19]; 44600 RLU in assay [26]; 20200 RLU in assay [20]; 4520 RLU in assay [27]. Also, the Trimeric HA Binding RLU in assay [21] was determined as 48000 RLU. For the same molecule, the Trimeric HA Binding: RLU in assay [30] stood at 1950 RLU.
